The target of experiment [1] is T1, cynomolgus MSLN-His-Avi (cynomolgus, single biotin (BirA) in the biotinylated form).
T1 construct: Monomeric, made in HEK293-6E; also called cMSLN-His-Avi; cyno MSLN-His-Avi
T1 chain: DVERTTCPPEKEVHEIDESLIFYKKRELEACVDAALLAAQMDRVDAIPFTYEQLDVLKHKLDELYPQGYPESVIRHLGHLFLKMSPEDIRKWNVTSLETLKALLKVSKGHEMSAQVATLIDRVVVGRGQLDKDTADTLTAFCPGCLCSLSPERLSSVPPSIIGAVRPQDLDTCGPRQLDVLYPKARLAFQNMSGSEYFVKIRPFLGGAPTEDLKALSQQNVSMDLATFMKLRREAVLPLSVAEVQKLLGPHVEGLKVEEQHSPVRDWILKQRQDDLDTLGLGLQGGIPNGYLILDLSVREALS
Put plainly: SPR steady-state analysis, cMSLN-His-Avi coated at about 50 RU. As for the experimental part:
The association time was 1000 sec to steady state and the dissociation time was 30 sec. Running buffer was HBS-EP (GE Healthcare BR100188). Flow cells were regenerated by injecting Glycine-HCl pH1.5 at a flow rate of 30 μl/min for 30 seconds. Data were analysed by double referencing against a flow cell which was intentionally left blank (no antigen coating). Steady state affinity model was used to analyse kinetic data using the BiaEvaluation software version 3.2.

In experiment [2] the target is T2, human MSLN-His-Avi (human, UniProt Q13421 296-598, single biotin (BirA) in the biotinylated form).
T2 construct: Monomeric, made in HEK293-6E; Used both immobilised and in solution; also called hMSLN-His-Avi; biotinylated hMSLN-His-Avi
As to the kind of experiment: SPR (Biacore), mAb^2 captured on Protein G, MSLN in solution injected. (In SPR one partner is held on a chip, and binding of the other changes the refractive index at the surface.)

The target in experiment [3] is T1, cynomolgus MSLN-His-Avi. The experiment is described as above.
Experiment [4] addresses T1, cynomolgus MSLN-His-Avi. As to the kind of experiment: SPR (see Table 4).
Experiment [5] concerns the target T3, cell surface human mesothelin (MSLN) (human, UniProt Q13421 296-598).
T3 construct: whole, on cells; also called cell surface MSLN
Put plainly: flow cytometry, NCI-H226 cells + 20 nM soluble MSLN. (In general: In flow cytometry, cells or beads pass a laser one at a time.)

Experiment [6] addresses T2, human MSLN-His-Avi. As to the kind of experiment: ratio of the two SPR KD. In a few lines: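 mAb² clones were tested on two SPR set-ups. In the first, human MSLN-His-Avi was amine-coupled to CM5 (~200 RU) and ~50 nM antibody was injected. In the second, clones were captured on Protein G (~100 RU) and human or cyno MSLN (1000-0.051 nM, 3-fold) was flowed in HBS-EP with 900 mM […] for 5 min association/5 min dissociation. The value is the ratio of the two KD.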

Experiment [7] has as its target T2, human MSLN-His-Avi. Put plainly: SPR (Biacore), MSLN immobilised, mAb^2 injected. In a few lines:
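Human MSLN-His-Avi amine-coupled to CM5 chip at about 200 RU, blank reference cell subtracted. Anti-MSLN mAb² (supernatant or purified) at about 50 nM in HBS-EP+ injected 2.5 min at 30 μl/min, 2.5 min dissociation; 10 mM glycine pH 1.5 regeneration.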

Experiment [8] concerns the target T3, cell surface human mesothelin (MSLN). Put plainly: flow cytometry, NCI-H226 cells.
For experiment [9] the target is unchanged. Put plainly: flow cytometry (BD CantoII), NCI-H226 cells + 20 nM soluble MSLN.
Experiment [10] shares this target. As to the kind of experiment: flow cytometry (BD CantoII), NCI-H226 cells.

Here are results for three molecules from patent publication US20220267421A1 (INVOX PHARMA, published 2022).

T3 sequence (Q13421 other isoform, or with tags, fused parts or gaps limits assumed): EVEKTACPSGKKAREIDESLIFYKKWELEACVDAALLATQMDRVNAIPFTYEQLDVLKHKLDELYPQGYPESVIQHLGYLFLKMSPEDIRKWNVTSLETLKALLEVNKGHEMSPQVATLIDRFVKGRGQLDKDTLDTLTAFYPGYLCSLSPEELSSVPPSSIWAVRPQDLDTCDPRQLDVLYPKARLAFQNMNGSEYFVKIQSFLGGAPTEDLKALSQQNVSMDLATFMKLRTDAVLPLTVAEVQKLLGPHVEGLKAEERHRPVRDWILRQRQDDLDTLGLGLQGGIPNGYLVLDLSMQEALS
T2 sequence (Q13421 other isoform, or with tags, fused parts or gaps): as the sequence (Q13421 other isoform, or with tags, fused parts or gaps limits assumed) above

B1: FS22-172-003-AA/FS28-256-271 mAb^2 (bispecific antibody, human IgG1, kappa, L234A L235A)
heavy: EVQLLESGGGLVQPGGSLRLSCAASGFTFTHTYMSWVRQAPGKGLEWVSAISPTYSTTNYADSVKGRFTISRDNNKNTLYLQMNSLRAEDTAVYYCARYNAYHAALDYWGQGTLVTVSSASTKGPSVFPLAPSSKSTSGGTAALGCLVKDYFPEPVTVSWNSGALTSGVHTFPAVLQSSGLYSLSSVVTVPSSSLGTQTYICNVNHKPSNTKVDKKVEPKSCDKTHTCPPCPAPEAAGGPSVFLFPPKPKDTLMISRTPEVTCVVVDVSHEDPEVKFNWYVDGVEVHNAKTKPREEQYNSTYRVVSVLTVLHQDWLNGKEYKCKVSNKALPAPIEKTISKAKGQPREPQVYTLPPSRDELPYIIPPYNQVSLTCLVKGFYPSDIAVEWESNGQPENNYKTTPPVLDSDGSFFLYSKLTVGADRWLEGNVFSCSVMHEALHNHYTQKSLSLSPG
light: EIVLTQSPGTLSLSPGERATLSCRASQSVSSSYLAWYQQKPGQAPRLLIYGASSRATGIPDRFSGSGSGTDFTLTISRLEPEDFAVYYCQQTVPYPYTFGQGTKVEIKRTVAAPSVFIFPPSDEQLKSGTASVVCLLNNFYPREAKVQWKVDNALQSGNSQESVTEQDSKDSTYSLSSTLTLSKADYEKHKVYACEVTHQGLSSPVTKSFNRGEC
For B1, the “fold difference of binding to cyno MSLN against human MSLN” value in the experiment with cynomolgus MSLN-His-Avi [1] is at most 3 fold.

B2: FS22-053-008-AA/FS28-024 mAb^2 (bispecific antibody, human IgG1, kappa, L234A L235A, V domains shown)
VH: EVQLLESGGGLVQPGGSLRLSCAASGFTLSYSSMSWVRQAPGKGLEWVSFITPSTGYTHYADSVKGRFTISRDNSKNTLYLQMNSLRAEDTAVYYCARRALTFDYWGQGTLVTVSS
VL: EIVLTQSPGTLSLSPGERATLSCRASQSVSSSYLAWYQQKPGQAPRLLIYGASSRATGIPDRFSGSGSGTDFTLTISRLEPEDFAVYYCQQASSYPLTFGQGTKVEIKR
notes: also called FS28-024 (in FS22-053-008-AA mAb^2 format); FS28-024 (in CD137 mAb2 format)
As a reminder, the Kd is the concentration at which binding is half-saturated. A lower Kd goes with tighter binding. A word on the EC50: it is the midpoint of the concentration-response curve. With B2, the Kd in the experiment with human MSLN-His-Avi [2] was found to be 46.5 nM; in the experiment with cynomolgus MSLN-His-Avi [3] it was 240 nM; in the experiment with human MSLN-His-Avi [7], 0.39 nM. Also, the “fold lower affinity for cyno MSLN than for human MSLN” value with cynomolgus MSLN-His-Avi [4] was around 5 fold. Besides, the values for the 50% effective concentration (EC50) in [5] and in experiment [8] were 5.04 nM and 1.47 nM, respectively. The “Emax (MFI)” value turned out to be 1.02e+06 MFI in [5] and 981000 MFI in experiment [8]. Also, the “Ratio of KD in solution/immobilised for human MSLN-His-Avi” value with human MSLN-His-Avi [6] came out at 119.

B3: FS22-053-008-AA/FS28-185 (bispecific antibody, human IgG1, kappa, L234A L235A, V domains shown)
VH: EVQLLESGGGLVQPGGSLRLSCAASGFTFTTSAMSWVRQAPGKGLEWVSRINPYEGETNYADSVKGRFTISRDNSKNTLYLQMNSLRAEDTAVYYCARGWSIATYYKSAMDYWGQGTLVTVSS
VL: EIVLTQSPGTLSLSPGERATLSCRASQSVSSSYLAWYQQKPGQAPRLLIYGASSRATGIPDRFSGSGSGTDFTLTISRLEPEDFAVYYCQQSSYSAPVTFGQGTKVEIKR
As to B3, the Kd with human MSLN-His-Avi [2] was 452 nM; with cynomolgus MSLN-His-Avi [3], 362 nM; in the experiment with human MSLN-His-Avi [7] it was 30.1 nM. For the same molecule, the EC50 came to 14.3 nM in [9] and 16.3 nM in experiment [10]. Further, the “Ratio of KD in solution/immobilised for human MSLN-His-Avi” value in the experiment with human MSLN-His-Avi [6] is 15.
